Results as given in patent publication US20230272088A1 (SYNTHEKINE, published 2023).

B1: DR904 (VHH)
VHH: EVQLVESGGGLVQAGGSLRLSCEASESILSINTMGWFRQAPGKQRELVAAISSGGSTNYADSVKGRFTISRDNAKNTVYLQMNSLKPEDTAVYYCDADRAYYKGQGTQVTVSS
notes: also called anti-IFNGR1 sdAb VHH DR904
B2: DR919 (VHH)
VHH: EVQLVESGGGLVQPGGFLRLSCAASRRTLSTYAMGWFRQAPGKEREFVAAISWRSGNTYYADSVKGRFTISRDNAKNTMYLQMNSLKPEDTAVYYCAANEVATMSGPHDHWGQGTLVTVSS
notes: also called anti-IFNGR1 sdAb VHH DR919
B3: DR921 (VHH)
VHH: QVQLVESGGGLVQAGDSLRLSCAASGRTFTFSTHNMGWFRQAPGKEREFVGGIMWTSRASYADSVKGRFTVSRDNAKNTVYLQMNSLKPEDTAVYYCAAAWYGNSGASYDYWGQGTQVTVSS
notes: also called anti-IFNGR1 sdAb VHH DR921
B4: DR927 (VHH)
VHH: QVQLVESGGGLVQAGGSLRLSCAASGRTFTSYAMNWFRQAPGKEREFVAAISWSSGNTYVADSVKGRFAISRDKAKNTMYLQMNSLAPEDTAVYYCAATTIATMSDEYTYWGQGTQVTVSS
notes: also called anti-IFNGR2 sdAb VHH DR927
B5: DR928 (VHH)
VHH: QVQLVESGGGLVQAGGSLRLSCAASGRTFSNYRMGWFRQAPGKEREFVAAISRGGGTTLYADSVKGRFTISRDNAKNTVDLQMNRLKPEDTAVYFCAAGDFSTTWDEYNYWGQGTQVTVSS
notes: also called anti-IFNGR2 sdAb VHH DR928
B6: DR929 (VHH)
VHH: QVQLVESGGGLVQAGGSLRLSCVASGRTFSSYAMGWFRQTPGKEREFVSAISRGGGSTDYADSVKGRFTISRDNAKNTVYLQMNNLKSEDTAVYYCALRAYSGRYYQFLEYDYWGQGTQVTVSS
notes: also called anti-IFNGR2 sdAb VHH DR929
B7: DR930 (VHH)
VHH: EVQLVESGGGLVQAGGSLRLSCTVSGRTFSSYAVAWFRQAPGNVRELAAALSRGGGSAYYTDSVKGRFTISRDNAKNTVYLQMNSLKPEDTAVYYCAARNYDGTYYQENQYNYWGQGTQVTVSS
notes: also called anti-IFNGR2 sdAb VHH DR930
B8: DR931 (VHH)
VHH: QVQLVESGGGLVQAGGSLLLSCAASGRTFSTYAMGWFRQAPGKERMFVAAISVNGGSTYYADSVTGRFTISRDNAKNTMYLQMNNLKPGDTAVYYCAARRPYPGSDFLTWASYDYRGQGTLVTVSS
notes: also called anti-IFNGR2 sdAb VHH DR931
B9: DR932 (VHH)
VHH: QVQLVESGGGLVQAGGFLRLSCAASGRTFSYTTIGWFRQAPGKEREFVAVISAGGGSRDYADALKGRFTISRDNAKKMVYLQMNNLKPEDTAVYYCAVRRNTDTYTTTGDYDYWGQGTQVTVSS
notes: also called anti-IFNGR2 sdAb VHH DR932
B10: DR933 (VHH)
VHH: QVQLVESGGGLVQPGDSLRLSCVASGGTISSLAMGWFRQAPGKEREFVAAISWSGRSTYYVDSVKGRFTISTDNAKNTVYLQMNSLKPEDTAVYYCVAGEDGHSEYDYWGQGTQVTVSS
notes: also called anti-IFNGR2 sdAb VHH DR933
B11: DR934 (VHH)
VHH: QVQLVESGGGLVQAGGSLRLSCAASGRSFANYAMGWFRQAPGKERETVAAISRGGGSTWYADSVKGRFTISKDNAKNTVYLQMNSLKPEDTAIYYCAARSYSGSYTYSFGEYDYWGQGTQVTVSS
notes: also called anti-IFNGR2 sdAb VHH DR934
B12: DR935 (VHH)
VHH: QVQLVESGGGLVQAGGSLRLSCAASGRAFSTYALGWFRQAPGKEREFIAAISRGGGSTDYADSVKGRFTISRDNAKSTVYLQMNSLKPEDTAVYYCAARSYSSSYYYSQYEYDYWGQGTQVTVSS
notes: also called anti-IFNGR2 sdAb VHH DR935
B13: DR936 (VHH)
VHH: EVQLVESGGGLVQAGGSLRLSCAASGRTFSSVAMAWFRQAPGKEREFVSAISSGGGSTDYADSVKGRFTISKDNAKNTMYLQMDSLKPEDTAVYYCAARDYSSRRYYQSRYEYDLWGLGTQVTVSS
notes: also called anti-IFNGR2 sdAb VHH DR936
B14: DR937 (VHH)
VHH: QVQLVESGGGLVQPGGSLRLSCAASGRTFRSYSMGWFRQAPGKEREFVAAISWYSGTTYYADPVKGRFTISRDDAKNTLYLQMNSLKPEDTAVYYCAANEIATMESSNDYWGQGTQVTVSS
notes: also called anti-IFNGR2 sdAb VHH DR937
B15: DR938 (VHH)
VHH: QVQLVESGGGLVQPGGSLRLSCTASGRPRTTYAMGWFRQAPGKEREIVAAISKAGGSTYVADSAKGRFAISKDNAKNTVYLQMNSLKPEDTAVYYCAARAGFAAQIFEYDYWGQGTLVTVSS
notes: also called anti-IFNGR2 sdAb VHH DR938
B16: DR939 (VHH)
VHH: EVQLVESGGGLVQAGGSMRLSCANSGRTFGTYAMGWFRQSPGKERERVASIDRDGSMSYYADSVKGRFTISGDNAKNTVYLQMNSLKPEDTAVYYCAASRRAVISLQTVDYWGQGTQVTVSS
notes: also called anti-IFNGR2 sdAb VHH DR939
B17: DR940 (VHH)
VHH: EVQLVESGGRLVQTGGSLRLSCAASGRTFSNYAMGWFRQAPGKEREFVAAISWYSGNTYYADSVKGRFTISRDNAKNTMYLQMNSLKPEDTAVYYCAANQIATMISVGDYWGQGTLVTVSS
notes: also called anti-IFNGR2 sdAb VHH DR940
B18: DR941 (VHH)
VHH: QVQLVESGGGLVEAGGSLRLACAASGSIFRLNLMGWYRQAPGKQRELVAHVGTTGNTAYADSVKGRFTISKDDAKNMVFLQMNSLKPEDTAVYYCYADRWGQFSWGQGTQVTVSS
notes: also called anti-IFNGR2 sdAb VHH DR941
B19: DR943 (VHH)
VHH: QVQLVESGGGLVQAGGSLRLSCVASGRTVGYGMAWFRQAPGKQRDVVAAITWSGTSTYYPDSVKGRFTISRDNAKNTMYLQMSSLKPEDTAVYYCAAGSRRRVGVDVGGYDYWGQGTQVTVSS
notes: also called anti-IFNGR2 sdAb VHH DR943
B20: DR946 (VHH)
VHH: QVQLVESGGGLVQPGESLRLSCAASGPFTRYAMGWFRQAPGKEREFVAAISWSSGNTYYVDSVKGRFTISRDNAKNTMYLQMNSLKPEDTAVYYCAANEVATMSGPDDYWGQGTQVTVSS
notes: also called anti-IFNGR2 sdAb VHH DR946
B21: DR947 (VHH)
VHH: QVQLVESGGGLVQAGGSLRLSCAASGGSFGRYTMGWYRQAPGKEREFVAVISWSGTNTYYADSVKGRFTISRDNAKNTMYLQMNDLKPEDTAVYYCAARETYYSHWDERMEYDYWGQGTQVTVSS
notes: also called anti-IFNGR2 sdAb VHH DR947
B22: DR948 (VHH)
VHH: QVQLVESGGGLVQAGDSLRLSCVASGSIDSSYYVSWFRQAPGKERDLVAAINWGDSRTAYADSVKGRFTISRDNAKNTVYLQMHSLRPNDTAVYYCASRIGLGGPVVAAPTRYPYWGQGTLVTVSS
notes: also called anti-IFNGR2 sdAb VHH DR948
B23: DR949 (VHH)
VHH: QVQLVESGGGLVQAGGSLRLSCAASESILRFNVMSWLRQAPGKQRELVAVITSGGSTNYADSVKGRFTISRDNAKNTVYLQMNSLKPEDTAVYYCAADESGQYYWGQGTQVTVSS
notes: also called anti-IFNGR2 sdAb VHH DR949
B24: DR950 (VHH)
VHH: QVQLVESGGGLVQAGGSLRLSCAASGLTTSSAALAWFRQAPGKERELDPTITSGGGSTYYADSVKGRFTISKDNAKNTLYLQMSSLKPEDTAVYYCAARFYSTTYYYREHEYSDWGQGTQVTVSS
notes: also called anti-IFNGR2 sdAb VHH DR950
B25: DR951 (VHH)
VHH: QVQLVESGGGLVQAGGSLRLSCAASGRTFGTSFGSLSMGWFRQAPGKEREFVAAISRNIGRTYYADSVKDRFTISRDNAKNTASLQMNSLEPEDTAVYNCAATNSYDDLRRSYAYDYWGQGTQVTVSS
notes: also called anti-IFNGR2 sdAb VHH DR951
B26: DR952 (VHH)
VHH: QVQLVESGGGLVQAGGFLRLSCAASGRTFSSLAMAWFRQAPGKEREFVAAISRSGGSTDYADSVKGRFTISRDNAKSTLYLQMSSLKPEDTAVYYCAARDYSTLQYYNEYEYSDWGQGTLVTVSS
notes: also called anti-IFNGR2 sdAb VHH DR952

Molecular target: T1, extracellular domain of hIFNGR1 (human, UniProt P15260 18-245, conjugated to Alexa647 (site not stated))
T1 construct: UniProt P15260 residues 18-245; also called hIFNGR1-ECD; human IFNGR1 ECD
T1 sequence: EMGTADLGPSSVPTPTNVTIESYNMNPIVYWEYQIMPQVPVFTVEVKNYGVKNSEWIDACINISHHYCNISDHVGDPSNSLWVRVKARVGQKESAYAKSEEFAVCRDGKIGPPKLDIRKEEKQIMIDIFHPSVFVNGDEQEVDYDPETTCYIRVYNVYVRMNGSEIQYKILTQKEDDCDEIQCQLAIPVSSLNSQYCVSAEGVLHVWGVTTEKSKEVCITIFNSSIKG
Assay: flow cytometry, yeast-displayed VHH, 100 nM Alexa647-conjugated antigen
Protocol: (§1) Binding of individual VHH to human and murine antigen was tested by flow cytometry. Briefly, 2E5 yeast cells expressing a single sdAb clone were added to each well of a 96 well plate. The first plate was incubated with 100 nM of human antigen conjugated to Alexa647 whereas the second plate was incubated with 100 nM of murine antigen conjugated to Alexa647. Yeast cells were washed 3 times with PBS containing 1% bovine serum albumin. Yeast cells were analyzed using flow cytometry and clones showing a mean fluorescence intensity of greater than 1000 were considered as binding molecules. Specificity of sdAbs was confirmed by incubating yeast cells with a irrelevant protein conjugated to Alexa647. Positive clones were sequenced, and sequences analyzed to identify unique clonotypes.

Binding result, binds:
B1, B2, B3

Molecular target: T2, extracellular domain of hIFNGR2 (human, UniProt P38484 28-247, conjugated to Alexa647 (site not stated))
T2 construct: also called hIFNGR2-ECD; human IFNGR2 ECD
T2 sequence: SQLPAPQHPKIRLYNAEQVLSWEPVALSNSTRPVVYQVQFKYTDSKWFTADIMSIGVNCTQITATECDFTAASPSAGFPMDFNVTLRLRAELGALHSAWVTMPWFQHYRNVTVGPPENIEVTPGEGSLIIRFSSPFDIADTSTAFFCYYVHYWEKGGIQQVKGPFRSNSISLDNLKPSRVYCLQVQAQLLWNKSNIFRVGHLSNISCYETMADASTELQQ
Assay: as above
Protocol: as §1

Binding result, binds:
B4, B5, B6, B7, B8, B9, B10, B11, B12, B13, B14, B15, B16, B17, B18, B19, B20, B21, B22, B23, B24, B25, B26
